Substitutions are numbered along the chain they refer to.
What was measured:
human ferroportin 1 [1] = target: T1, human ferroportin 1 (human, UniProt Q9NP59 1-571); assay: cell-based or functional assay
T1 sequence: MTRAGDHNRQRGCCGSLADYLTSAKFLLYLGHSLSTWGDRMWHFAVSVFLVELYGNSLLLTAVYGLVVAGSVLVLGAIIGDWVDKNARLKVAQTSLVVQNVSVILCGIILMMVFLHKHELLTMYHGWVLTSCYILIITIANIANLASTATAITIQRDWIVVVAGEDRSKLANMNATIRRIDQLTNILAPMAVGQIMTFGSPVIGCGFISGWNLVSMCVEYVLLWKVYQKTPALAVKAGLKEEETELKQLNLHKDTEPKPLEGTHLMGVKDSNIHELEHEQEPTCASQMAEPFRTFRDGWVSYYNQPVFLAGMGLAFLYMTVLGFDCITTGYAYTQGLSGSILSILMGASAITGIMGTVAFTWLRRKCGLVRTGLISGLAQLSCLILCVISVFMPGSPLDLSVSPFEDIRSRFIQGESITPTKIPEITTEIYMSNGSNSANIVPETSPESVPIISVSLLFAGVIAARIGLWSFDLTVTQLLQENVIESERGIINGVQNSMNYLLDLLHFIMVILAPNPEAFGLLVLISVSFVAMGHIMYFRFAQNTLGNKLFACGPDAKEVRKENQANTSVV

human ferroportin 1 [2] = target: T1, human ferroportin 1; assay: inhibition of binding of 30 nM biotinylated hepcidin to FPN/293 cells, ELISA of lysate; antibody at 7.8 nM; mean
Method: (§1) Next, 65 μL of lysing buffer (0.5% Triton X-100, 10 mM EDTA) are added to all the wells and the plates are shaken for 10 minutes. Next, 50 μL of the solution in each well is transferred to individual wells of a streptavidin coated Greiner microtiter plate (60 μL of 2 μg/mL streptavidin (Sigma, St. Louis, Mo.; catalog no. S4762) in PBS, incubated at 4° C. overnight, washed 2 times (0.1% Tween 20, TBS), blocked with casein/PBS), and then incubated for one hour at room temperature. […] After incubating one hour at room temperature, the plate is washed 4× and 50 μL of OPD substrate (Sigma; catalog no. P6912) is added. The reaction is stopped with 100 μL 1 N HCl after 4 minutes. Absorbance at 490 nm (A₄₉₀) is read using an appropriate ELISA plate reader.

[3] = target: T2, human FPN1 C-terminally fused with GFP (human, UniProt Q9NP59 1-571, GFP reporter fused to the C-terminus ("FPN1 is C-terminally fused with GFP"). It is left out because the patent gives no letters for it.); assay: cell-based or functional assay
T2 sequence: T1 sequence

human ferroportin 1 [4] = target: T1, human ferroportin 1; assay: inhibition of binding of 30 nM biotinylated hepcidin to FPN/293 cells, ELISA of lysate; antibody at 125 nM; mean
Method: as §1

human ferroportin 1 [5] = target: T1, human ferroportin 1; assay: inhibition of binding of 30 nM biotinylated hepcidin to FPN/293 cells, ELISA of lysate; antibody at 2000 nM; mean
Method: as §1

human ferroportin 1 [6] = target: T1, human ferroportin 1; assay: inhibition of binding of 30 nM biotinylated hepcidin to FPN/293 cells, ELISA of lysate; antibody at 500 nM; mean
Method: as §1

human ferroportin 1 [7] = target: T1, human ferroportin 1; assay: inhibition of binding of 30 nM biotinylated hepcidin to FPN/293 cells, ELISA of lysate; antibody at 31.25 nM; mean
Method: as §1

[8] = target: T2, human FPN1 C-terminally fused with GFP; assay: cell-based or functional assay; remark: listed apart in the source
[9] = target: T2, human FPN1 C-terminally fused with GFP; assay: SPR, Biacore T100, 37 C, 1:1 model; FPN1-GFP captured from cell lysate on rabbit anti-GFP antibody, Mab injected
Method: (§2) The affinities of FPN1 binding Fabs and Mabs may be determined on Biacore T100 and using 1:1 binding model in the Biacore T100 evaluation software (BIAcore® AB, Upsala, Sweden). […] FPN1 is C-terminally fused with GFP. Expression of FPN1-GFP is induced by 1-10 ng/mL doxycycline for 1-24 hours. Induced cells are harvested by scraping off from flasks and then washed with 1×PBS. Cell pellets can be stored at −80° C. before use. About five million induced cells are resuspended in 10 mM phosphate buffer with 0.2% Tween-20 and protease inhibitors, e.g., Complete™ Protease Inhibitor Cocktail Tablet (Roche Diagnostics Corp., Indianapolis, Ind.). Three cycles of freeze/thaw/sonication are used to lyse the cells. The lysate is diluted two-fold with Biacore running buffer and centrifuged to remove debris.
(§3) On Biacore T100, rabbit anti-GFP antibody or goat anti-GFP antibody is immobilized onto flow cell 1 to 4 of a CMS chip at 5000-15000 Rus. FPN1-GFP is captured onto flow cell 2, 3, or 4 from the lysate of induced cells. Flow cell 1 is used as reference. Then all flow cells are injected with different concentrations of antibodies to evaluate the binding and kinetics.

human ferroportin 1 [10] = target: T1, human ferroportin 1; assay: inhibition of binding of 30 nM biotinylated hepcidin to FPN/293 cells, ELISA of lysate
Method: as §1

peptide 0708L4C = target: T3, peptide 0708L4C (human); assay: dot blot: peptide spotted on nitrocellulose, probed with Mab 34A9, IR700-labeled goat anti-mouse detection
T3 peptide: GGEDIRSRFIQGESITGC
Method: (§4) For each peptide, 3 μl of 1-5 μg/mL peptide is spotted onto a piece of nitrocellulose membrane and air dried. The membrane is blocked with blocking buffer (e.g., PBS containing 1% BSA), then incubated with 3-5 μg/mL FPN1 antibody in blocking buffer at room temperature for an hour. The membrane is washed three times, 5 min each, with 1×PBST (10 mM sodium phosphate, 150 mM NaCl, 0.1% Tween-20, pH 7.4) before it is incubated with IR700-labeled-Goat-anti-Mouse antibody according to manufacturer's protocol (LiCor, Inc; Lincoln, Nebr.). The membrane is washed three times, five minutes each, with 1×PBST, is imaged on Odyssey imaging system and Odyssey software (LiCor, Inc).

peptide 0708L4D = target: T4, peptide 0708L4D (human); assay: as above
T4 peptide: GGRSRFIQGESITPTKGC
Method: as §4

peptide 060719Z = target: T5, peptide 060719Z (human); assay: as above
T5 peptide: GGSPFEDIRSRFIQGC
Method: as §4

peptide FpnE3a = target: T6, peptide FpnE3a (human); assay: as above
T6 peptide: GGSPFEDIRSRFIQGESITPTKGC
Method: as §4

[11] = target: T2, human FPN1 C-terminally fused with GFP; assay: SPR, Biacore T100, 25 C, 1:1 model; FPN1-GFP captured from cell lysate on rabbit anti-GFP antibody, Mab injected
Method: as §2, §3

[12] = target: T2, human FPN1 C-terminally fused with GFP; assay: SPR, Biacore T100, 37 C; KD of Fab 1G9 against KD of Fab 34A9 (Table 4(a))
From the text: The affinities of FPN1 binding Fabs and Mabs may be determined on Biacore T100 and using 1:1 binding model in the Biacore T100 evaluation software (BIAcore® AB, Upsala, Sweden). Briefly, the T-REx system, a commercially available tetracycline-regulated expression system without viral transactivators (Invitrogen, Carlsbad, Calif.) is used for stable cell line generation in T-Rex HEK 293 cells. All growth conditions are described in the T-REx manual provided by Invitrogen. FPN1 is C-terminally fused with GFP. Expression of FPN1-GFP is induced by 1-10 ng/mL doxycycline for 1-24 hours. Induced cells are harvested by scraping off from flasks and then washed with 1×PBS. Cell pellets can be stored at −80° C. before use. About five million induced cells are resuspended in 10 mM phosphate buffer with 0.2% Tween-20 and protease inhibitors, e.g., Complete™ Protease Inhibitor Cocktail Tablet (Roche Diagnostics Corp., Indianapolis, Ind.). Three cycles of freeze/thaw/sonication are used to lyse the cells. The lysate is diluted two-fold with Biacore running buffer and centrifuged to remove debris.
On Biacore T100, rabbit anti-GFP antibody or goat anti-GFP antibody is immobilized onto flow cell 1 to 4 of a CMS chip at 5000-15000 Rus. FPN1-GFP is captured onto flow cell 2, 3, or 4 from the lysate of induced cells. Flow cell 1 is used as reference. […]

[13] = target: T2, human FPN1 C-terminally fused with GFP; assay: SPR, Biacore T100, 37 C, 1:1 model; FPN1-GFP captured from cell lysate on goat anti-GFP antibody, Fab injected; n = 4
Method: as §2, §3

[14] = target: T2, human FPN1 C-terminally fused with GFP; assay: SPR, Biacore T100, 37 C, 1:1 model; FPN1-GFP captured from cell lysate on rabbit anti-GFP antibody, Fab injected
Method: as §2, §3

B1: Mab 3D8 (antibody, human IgG4 S228P, kappa, F234A L235A, V domains shown)
VH: QVQLVQSGAEVKKPGSSVKVSCKASGYAFTSFLIEWVRQAPGQGLEWMGTSNPRTGGTKYKEKFRGRVTITADKSTSTAYMELSSLRSEDTAVYYCAREFFDYWGQGTTVTVSS
VL: DIQMTQSPSSLSASVGDRVTITCRASKSISKYTAWYQQKPGKAPKLLIYAGSKLHSGVPSRFSGSGSGTDFTLTISSLQPEDFATYYCQQHNEYPYTFGGGTKVEIKR
notes: Humanized form of mouse 1G9 with human heavy chain framework VH1-69 and light chain framework O2; also called human 3D8
- EC50 of inhibition of mature hepcidin induced increase in cellular ferritin, Caco-2 cells (human ferroportin 1 [1]): 360 nM
- Percentage inhibition of mature hepcidin induced increase in cellular ferritin, Caco-2 cells, Mab at 2.22E-7 M (human ferroportin 1 [1]): 25.2%
- Percentage inhibition of mature hepcidin induced increase in cellular ferritin, Caco-2 cells, Mab at 2.47E-8 M (human ferroportin 1 [1]): 3.4%
- Percentage inhibition of mature hepcidin induced increase in cellular ferritin, Caco-2 cells, Mab at 2.7E-9 M (human ferroportin 1 [1]): 10.6%
- Percentage inhibition of mature hepcidin induced increase in cellular ferritin, Caco-2 cells, Mab at 3.0E-10 M (human ferroportin 1 [1]): 7.3%
- Percentage inhibition of mature hepcidin induced increase in cellular ferritin, Caco-2 cells, Mab at 6.67E-7 M (human ferroportin 1 [1]): 29.8%
- Percentage inhibition of mature hepcidin induced increase in cellular ferritin, Caco-2 cells, Mab at 7.4E-8 M (human ferroportin 1 [1]): 12%
- Percentage inhibition of mature hepcidin induced increase in cellular ferritin, Caco-2 cells, Mab at 8.0E-9 M (human ferroportin 1 [1]): 14.9%
- Percentage inhibition of mature hepcidin induced increase in cellular ferritin, Caco-2 cells, Mab at 9.0E-10 M (human ferroportin 1 [1]): 8.6%
- % Inhibition (human ferroportin 1 [2]): -2.8%
- Percent (%) Inhibition of Mature Human Hepcidin-induced Internalization and Degradation, Mab at 7.4 nM [3]: 28.1%
- Percent (%) Inhibition of Mature Human Hepcidin-induced Internalization and Degradation, Mab at 22 nM [3]: 50.2%
- Percent (%) Inhibition of Mature Human Hepcidin-induced Internalization and Degradation, Mab at 67 nM [3]: 55.7%
- Percent (%) Inhibition of Mature Human Hepcidin-induced Internalization and Degradation, Mab at 200 nM [3]: 63.8%
- Percent (%) Inhibition of Mature Human Hepcidin-induced Internalization and Degradation, Mab at 600 nM [3]: 66.4%
- % Inhibition (human ferroportin 1 [4]): 21.8%
- % Inhibition (human ferroportin 1 [5]): 54.7%
- % Inhibition (human ferroportin 1 [6]): 64.7%
- % Inhibition (human ferroportin 1 [7]): 4%
- Absolute IC50 of inhibition of hepcidin-25-induced internalization and degradation of FPN1-GFP [8]: 13.7 nM
- Relative IC50 of inhibition of hepcidin-25-induced internalization and degradation of FPN1-GFP [8]: 10.2 nM
- Top % Inhibition of hepcidin-25-induced internalization and degradation of FPN1-GFP [8]: 86.8%
- Kd [9]: 3.37 nM
- koff [9]: 0.0011 s⁻¹
- kon [9]: 325000 M⁻¹ s⁻¹
- IC50 (human ferroportin 1 [10]): ~400 nM

B2: Mab 34A9 (antibody, mouse IgG1, kappa, V domains shown)
VH: QVQLKQSGAELVRPGTSVKVSCKASGYAFTNFLIEWLKQRPGQGLEWIGTINPETGGTKYNEKFRGKATLTADKSSSTAYMQLNSLTSDDSAVYFCVREFFDYWGQGTSLTVSS
VL: ETTVTQSPSYLAASPGETITINCRASKSISKYLAWFQEKPGKTNKLLIYAGSTLHSGIPSRFSGSGSGTDFTLTISSLEPEDFAMYYCQQHNEYPYTFGGGTKLELKR
notes: Mouse monoclonal antibody against human FPN1; also called mouse 34A9; mouse Mab 34A9
- Percent (%) Inhibition of Mature Human Hepcidin-induced Internalization and Degradation, Mab at 7.4 nM [3]: 4.8%
- Percent (%) Inhibition of Mature Human Hepcidin-induced Internalization and Degradation, Mab at 22 nM [3]: 14.1%
- Percent (%) Inhibition of Mature Human Hepcidin-induced Internalization and Degradation, Mab at 67 nM [3]: 23.6%
- Percent (%) Inhibition of Mature Human Hepcidin-induced Internalization and Degradation, Mab at 200 nM [3]: 30.8%
- Percent (%) Inhibition of Mature Human Hepcidin-induced Internalization and Degradation, Mab at 600 nM [3]: 39%
- binding result (peptide 0708L4C): binds
- binding result (peptide 0708L4D): binds
- binding result (peptide 060719Z): binds
- binding result (peptide FpnE3a): binds
- Relative IC50 of inhibition of hepcidin-25-induced internalization and degradation of FPN1-GFP [8]: 58.9 nM
- Top % Inhibition of hepcidin-25-induced internalization and degradation of FPN1-GFP [8]: 55.2%
- Kd [11]: 1.18 nM
- koff [11]: 8.16e-05 s⁻¹
- kon [11]: 69000 M⁻¹ s⁻¹

B3: Fab 1G9 (Fab, V domains shown)
VH: B2 VH with N31S, E54R
VL: ETTVTQSPSYLAASPGETITINCRASKSISKYLAWFQEKPGKTNKLLIYAGSKLHSGIPSRFSGSGSGTDFTLTISSLEPEDFAMYYCFQHNEYPYTFGGGTKLELK
notes: also called mouse 1G9; mouse Fab 1G9
- fold improvement in binding affinity over mouse Fab 34A9 [12]: ~5 fold
- Kd [13]: 2.9 nM
- koff [13]: 0.000497 s⁻¹
- kon [13]: 173000 M⁻¹ s⁻¹
- Kd [14]: 7.71 nM
- koff [14]: 0.000897 s⁻¹
- kon [14]: 127000 M⁻¹ s⁻¹

Reference: patent US20130122013A1 (Eli Lilly, published 2013)
